[ ]: non-standard residue; d: D form. pGlu = O=C1CC[C@@H](C(=O)O)N1
B1: human DRL90h-FLAG fusion protein, 7.1 kDa molecule cleaved at the furin cleavage site (other)
chain: [pGlu]DRPSKPGFPDEPMREYMHHLLALEHRAEEQFLEHWLNPHCKPHCDRNRIHPVVDYKDDDDK
modifications: also: a pair of intramolecular disulfide bonds
notes: C-terminal processing product of the COS-7 DRL90h-FLAG fusion; The FLAG tail is inferred from detection and purification with anti-FLAG antibody; also called major component of the human DRL90 gene product
B2: human DRL90h-FLAG fusion protein, 9.2 kDa molecule not cleaved at the furin cleavage site (other)
chain: SPILTEKQAKQLLRSRRQDRPSKPGFPDEPMREYMHHLLALEHRAEEQFLEHWLNPHCKPHCDRNRIHPVVDYKDDDDK
notes: Expressed in COS-7 cells from pDRL90h-FLAG; It was detected on Western blots after SDS-PAGE; also called human DRL90-FLAG fusion protein

Columns and labels:
[1] = biological target: the molecule itself; experiment: non-reducing versus reducing SDS-PAGE and anti-FLAG Western blot; disulfide-linked dimer of the cleaved form
Procedure: (§1) Transfection was carried out using 1 µg/well of the pDRL90h-FLAG DNA constructed in Example 3 and Effectene (Qiagen). Twenty-four hours after the transfection, the medium was replaced with serum-free DMEM medium supplemented with 1 ml of 0.1 mM pABSF (Wako Purechemical Industries) and 0.05% CHAPS (Dojin Chemical). Then, the cells were cultured further for 48 hr. The culture supernatant was transferred into Eppendorf sample tubes and centrifuged. After removal of floating cells, the supernatant was concentrated to about 1/10 in volume with Centricon YM-3 ultrafiltration membrane (Millipore). An equal volume of Tricine SDS-PAGE sample buffer (TEFCO) was added to the resultant concentrated culture supernatant. With respect to the cells, they were washed in 1 ml of PBS (Gibco BRL) twice and then 500 l of Tricine SDS-PAGE sample buffer was added thereto. […] After blocking the nitrocellulose filter with PBS containing 0.1% Tween 20 and 50% Block Ace (Snow Brand Milk Products), human DRL90-FLAG fusion protein was detected with antibodies. […] For luminescence, ECL Western Blotting Kit (Amersham Pharmacia Biotech) was used. Chemiluminescence was detected with Hyperfilm ECL (Amersham Pharmacia Biotech). […] The fusion protein in cell fractions was detected as a polypeptide of approx. 9.2 kDa under reducing conditions and as a polypeptide of approx. 21 kDa under non-reducing conditions.

[2] = biological target: B1; experiment: non-reducing versus reducing SDS-PAGE and anti-FLAG Western blot; disulfide-linked dimer of the uncleaved and cleaved forms
Procedure: as §1

[3] = biological target: the molecule itself; experiment: non-reducing versus reducing SDS-PAGE and anti-FLAG Western blot; disulfide-linked dimer (approx. 21 kDa)
Procedure: as §1

binding result [2] | Binder | binding result [1] | binding result [3]
 | B1 | binds | 
binds | B2 |  | binds

Source: US20040053276A1 (published 2004)
